Results as given in patent publication US20110027794.

Key:
[1] = test system: unnamed basic selection target protein (pI 9, 9 kDa); experiment: SELEX; conditions: 2'-F at all nucleotides; 0.89% bound with protein vs 0.48% without after 4 rounds; 20 mM Tris pH 7.4, 150 mM NaCl, 4 mM KCl, 1 mM MgCl2, 1 mM CaCl2, 0.1% Tween-20, 37 C
[2] = biological target: DNase I (UniProt P00639); experiment: cleavage_in_vitro; conditions: 2'-F at all nucleotides; 100 mM NaOAc, 5 mM MgCl2, 37 C, 5 min
DNase I, sequence (P00639 23-282): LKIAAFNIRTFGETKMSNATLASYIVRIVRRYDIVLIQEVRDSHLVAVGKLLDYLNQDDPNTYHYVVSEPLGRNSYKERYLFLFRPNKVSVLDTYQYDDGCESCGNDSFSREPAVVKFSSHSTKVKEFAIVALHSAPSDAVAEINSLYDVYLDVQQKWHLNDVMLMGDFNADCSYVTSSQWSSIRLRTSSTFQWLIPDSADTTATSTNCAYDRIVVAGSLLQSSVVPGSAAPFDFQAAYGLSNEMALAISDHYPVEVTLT

Row | Sequence | binding signal (fold over no-protein control) [1] | binding signal (fold more stable than DNA) [2]
1 | GTGGAACCGACAGTGGTACGTGNNNNNNNNNNNNNNNNNNNNNNNNNNNNNNNNNNNNNNNNCACGAGTGAAGTCTGAGCTCC [BSA-1C FNA pool, selection round 4] | 1.85 | –
2 | NNNNNNNNNNNNNNNNNNNNNNNNNNNNNNNNNNNNNNNNCACGAGTGAAGTCTGAGCTCC | – | > 100
